“And” between values parts separate entries of the source, which are not always exact repeats. Equal entries are not always repeated.
T1: biotinylated CRH (human and mouse, not fully specified; biotinylated, position not stated)
T1 construct: also called Biotin-CRH; biotin-labeled CRH
T1 peptide: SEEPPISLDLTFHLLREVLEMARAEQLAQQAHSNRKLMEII

T2: human UCN2 peptide (human, UniProt Q96RP3 72-109, limits assumed, not fully specified; biotin at N- or C-terminus in the ELISA)
T2 construct: also called hUCN2; hUCN2 (NT Biotin)
T2 peptide (looked up): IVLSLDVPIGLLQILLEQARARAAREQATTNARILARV

T3: hUCN1 (CT Biotin) (human, UniProt P55089 83-122, biotin at the C-terminus)
T3 construct: also called human UCN1 (CT biotin)
T3 peptide (looked up): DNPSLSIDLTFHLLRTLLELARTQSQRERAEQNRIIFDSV

T4: CRH (NT Biotin) (human and mouse, not fully specified; biotin at the N-terminus)
T4 peptide: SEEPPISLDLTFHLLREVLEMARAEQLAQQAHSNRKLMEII

T5: CRH (CT Biotin) (human and mouse, C-terminal K-Biotin)
T5 construct: also called Peptide 4 (CRH-Biotin)
T5 peptide: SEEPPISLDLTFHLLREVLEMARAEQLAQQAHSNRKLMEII

T6: hUCN1 (NT Biotin) (human, UniProt P55089 83-122, biotin at the N-terminus)
T6 construct: also called human UCN1 (NT biotin)
T6 peptide (looked up): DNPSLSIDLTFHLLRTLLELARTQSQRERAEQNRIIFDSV

T7: human UCN1 peptide (human, UniProt P55089 83-122)
T7 peptide (looked up): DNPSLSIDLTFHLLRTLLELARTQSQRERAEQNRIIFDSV

T8: corticotropin-releasing hormone (CRH) peptide (human and mouse, not fully specified)
T8 peptide: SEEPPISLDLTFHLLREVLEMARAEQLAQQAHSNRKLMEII

T9: human UCN3 peptide (human, UniProt Q969E3 120-157, not fully specified; biotin at N- or C-terminus in the ELISA)
T9 construct: also called hUCN3; hUCN3 (NT Biotin)
T9 peptide (looked up): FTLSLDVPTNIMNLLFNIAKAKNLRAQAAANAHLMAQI

T10: N-Terminal CRH (human and mouse, C-terminal K-Biotin)
T10 construct: also called N-Ter-CRH (CT-Bion)
T10 peptide: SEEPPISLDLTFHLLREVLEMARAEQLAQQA


Columns and labels:
biotinylated CRH [1] = biological target: T1, biotinylated CRH; assay: Octet BLI, biotinylated CRH on SA sensor
human UCN2 peptide [2] = biological target: T2, human UCN2 peptide; assay: ELISA on streptavidin-captured hUCN2 (NT biotin) and hUCN2 (CT biotin), mAb at 100 nM and 10 nM; axis labelled RLU, scale 0-4
Description: (§1) Streptavidin (Thermo, Cat: 21125) was diluted in PBS with a concentration of 2 μg/mL. 100 μL of diluted streptavidin was added per well to ELISA microplates, and the plates were incubated overnight at 4° C. Plates were blocked with ELISA blocking solution (containing 2% w/v BSA, 0.05% (v/v) Tween-20, pH 7.4 PBS buffer) at 37° C. for 1 hour, and then incubated with either 1 μg/mL hUCN1 (NT Biotin), hUCN1 (CT Biotin), hUCN2 (NT Biotin), hUCN2 (CT Biotin), hUCN3 (NT Biotin), or hUCN3 (CT Biotin) for 1 hour at 37° C. […] 100 μl of TMB Substrate (Biopanda, Cat: TMB-S-003) was added, and the plates were incubated at room temperature for 15 minutes. 100 μL of ELISA stopping solution (Solarbio, Cat #: C1058) was then added to terminate the reaction, and the OD450 nm was determined by an ELISA plate reader (Molecular Devices, Spectra max 384 plus).

hUCN1 (CT Biotin) = biological target: T3, hUCN1 (CT Biotin); assay: ELISA, biotin peptide on streptavidin plate
Description: (§2) Streptavidin (Thermo, Cat: 21125) was diluted in PBS to a concentration of 2 μg/ml. 100 μl of diluted streptavidin was added per well to ELISA microplates, and the plates were incubated overnight at 4° C. […] 100 μL of 3,3′,5,5′-tetramethylbenzidine (TMB) substrate (Biopanda, Cat: TMB-S-003) was added, and the plates were incubated at room temperature for 15 minutes. 100 μL of ELISA stopping solution (Solarbio, Cat #: C1058) was added to terminate the reaction, and the optical density at 450 nm (OD450 nm) was determined by an ELISA plate reader (Molecular Devices, Spectra max 384 plus).

CRH (NT Biotin) = biological target: T4, CRH (NT Biotin); assay: ELISA, biotin peptide on streptavidin plate
Description: as §2

CRH (CT Biotin) = biological target: T5, CRH (CT Biotin); assay: ELISA, biotin peptide on streptavidin plate
Description: as §2

hUCN1 (NT Biotin) = biological target: T6, hUCN1 (NT Biotin); assay: ELISA, biotin peptide on streptavidin plate
Description: as §2

human UCN1 peptide = biological target: T7, human UCN1 peptide; assay: cell-based or functional assay
[3] = biological target: T8, corticotropin-releasing hormone (CRH) …; assay: cell-based or functional assay
human UCN3 peptide = biological target: T9, human UCN3 peptide; assay: ELISA on streptavidin-captured hUCN3 (NT biotin) and hUCN3 (CT biotin), mAb at 100 nM and 10 nM, OD450
Description: as §1

human UCN2 peptide [4] = biological target: T2, human UCN2 peptide; assay: ELISA on streptavidin-captured hUCN2 (NT biotin) and hUCN2 (CT biotin), mAb at 100 nM and 10 nM, OD450
Description: as §1

biotinylated CRH [5] = biological target: T1, biotinylated CRH; assay: competitive ELISA, coated 1st mAb; competitor PR006152
Description: (§3) For epitope binding, a competitive ELISA was performed. Specifically, 1 μg/ml of capture antibody, 100 μl/well, was coated on a 96 well-plate at 4° C. overnight. Plates were blocked with ELISA blocking solution (containing 2% w/v BSA, 0.05% (v/v) Tween-20, pH 7.4 PBS buffer) at 37° C. for 1 hour. […] Subsequently, plates were washed and incubated with Streptavidin-Peroxidase (SIGMA, Cat: 52438-250UG) at 37° C. for 1 hour. 100 μL of 3,3′,5,5′-tetramethylbenzidine (TMB) substrate (Biopanda, Cat: TMB-S-003) was added, and the plates were incubated at room temperature for 15 minutes. 100 μL of ELISA stopping solution (Solarbio, Cat #: C1058) was added to terminate the reaction, and the optical density at 450 nm (OD450 nm) was determined by an ELISA plate reader (Molecular Devices, Spectra max 384 plus).

biotinylated CRH [6] = biological target: T1, biotinylated CRH; assay: competitive ELISA, coated 1st mAb; competitor PR005660
Description: as §3

biotinylated CRH [7] = biological target: T1, biotinylated CRH; assay: competitive ELISA, coated 1st mAb; competitor PR004290
Description: as §3

biotinylated CRH [8] = biological target: T1, biotinylated CRH; assay: competitive ELISA, coated 1st mAb; competitor PR302064
Description: as §3

biotinylated CRH [9] = biological target: T1, biotinylated CRH; assay: competitive ELISA, coated 1st mAb; competitor PR302055
Description: as §3

biotinylated CRH [10] = biological target: T1, biotinylated CRH; assay: competitive ELISA, coated 1st mAb; competitor PR302069
Description: as §3

biotinylated CRH [11] = biological target: T1, biotinylated CRH; assay: competitive ELISA, coated 1st mAb; competitor PR006148
Description: as §3

biotinylated CRH [12] = biological target: T1, biotinylated CRH; assay: competitive ELISA, coated 1st mAb; competitor PR301777
Description: as §3

biotinylated CRH [13] = biological target: T1, biotinylated CRH; assay: competitive ELISA, coated 1st mAb; competitor hIgG1
Description: as §3

biotinylated CRH [14] = biological target: T1, biotinylated CRH; assay: competitive ELISA, coated 1st mAb; competitor PR302050
Description: as §3

N-Terminal CRH = biological target: T10, N-Terminal CRH; assay: ELISA, biotin peptide on streptavidin plate
Description: as §2

Kd (biotinylated CRH [1])	koff (biotinylated CRH [1]) [s⁻¹]	kon (biotinylated CRH [1]) [M⁻¹ s⁻¹]	EC50 (hUCN1 (CT Biotin)) [nM]	EC50 (CRH (NT Biotin)) [nM]	EC50 (CRH (CT Biotin)) [nM]	EC50 (hUCN1 (NT Biotin)) [nM]	CHO-CRE-hCRHR1 1 nM hUCH1 IC50 (human UCN1 peptide) [nM]	CHO-CRE-hCRHR1 0.5 nM CRH IC50 [3] [nM]	binding result (human UCN3 peptide)	binding result (human UCN2 peptide [4])	% Inhibition (biotinylated CRH [5]) [%]	% Inhibition (biotinylated CRH [6]) [%]	% Inhibition (biotinylated CRH [7]) [%]	% Inhibition (biotinylated CRH [8]) [%]	% Inhibition (biotinylated CRH [9]) [%]	% Inhibition (biotinylated CRH [10]) [%]	% Inhibition (biotinylated CRH [11]) [%]	% Inhibition (biotinylated CRH [12]) [%]	% Inhibition (biotinylated CRH [13]) [%]	also measured	Binder
0.0142 nM	3.35e-05	2.49e+06	0.036	0.043	0.036	0.026	71	0.878												binding result (human UCN2 peptide [2]): no binding (tested: 100 nM); hUCN1 IC50/ CRH IC50 (human UCN1 peptide): 81 fold	PR302341-60 (antibody, human IgG1, kappa, V domains shown, Humanized, PTM-removed variant of PR302341) VH: QVQLVQSGAEVKKPGASVKVSCKASGYTFTDYFMKWVRQAPGQRLEWMGVINPNQGDIFYNQKFKGRVTITRDTSASTAYMELSSLRSEDTAVYYCARGTDRALFAYWGQGTLVTVSS VL: DVVMTQSPLSLPVTLGQPASISCRSGQSIVHSDANTYLEWYQQRPGQSPRLLIYKVSNRFSGVPDRFSGSGSGTDFTLKISRVEAEDLGVYYCFQGSHIPWTFGGGTKVEIKR
0.0136 nM			0.022	0.028		0.018	42.5	2.77	no binding (tested: 100 nM)	no binding (tested: 100 nM)											PR303394 (antibody, human IgG1, kappa, V domains shown, also called analog of CTRND05) VH: EVQLQQSGPELVKPGVSMKISCKASGYSFTDSTMNWVKQSHGKNLEWIGLIHPDNGGTIYNQKFKGKATLTVHKSSSTAYMELLSLTSEDSAVYYCANGFAYWGQGTLVTVSA VL: DVVMTQTPLSLPVSLGDQASISCRSSQSLLHSNGNTYLHWYLQKPGQSPELLIYKVSNRFSGVPDRFSGSGSGTDFTLKISRVEAEDLGVYFCSQSTHVPLTFGAGTKLELKR
											95	94	94	95	95	95	95	94	2	% Inhibition (biotinylated CRH [14]): 95%	PR302055 (antibody, human IgG1, kappa, V domains shown, Humanized variant of PR301777) VH: EMQLVESGGGLVQPGGSLKLSCAASGFTFSNYWMNWVRQASGKGLEWVAEIRLKSNNYATHYAESVKGRFTISRDDSKSTVYLQMNSLKTEDTAVYYCTVGTLVYWGQGTLVTVSS VL: DIQLTQSPSSLSASVGDRVTITCRASQSVSTSTYNYMHWFQQKPGKAPKLLIKFASNLESGVPSRFSGSGSGTDFTLTISSLQPEDTATYYCQHSWEIPYTFGQGTKLEIKR
											94	94	93	95	95	95	95	94	0	% Inhibition (biotinylated CRH [14]): 95%	PR302069 (antibody, human IgG1, kappa, V domains shown, Humanized variant of PR301777) VH: EMQLVESGGGLVKPGGSLRLSCAASGFTFSNYWMNWVRQAPGKGLEWVAEIRLKSNNYATHYAESVKGRFTISRDDSKSTVYLQMNSLKTEDTAVYYCTVGTLVYWGQGTLVTVSS VL: DIQLTQSPSSLSASVGDRVTITCRASQSVSTSTYNYMHWFQQKPGKAPKLLIKFASNLESGVPSRFSGSGSGTDFTLTISSLQPEDTATYYCQHSWEIPYTFGQGTKLEIKR
0.12 nM and 0.0409 nM				0.028	0.054	9.37		10.3	no binding (tested: 100 nM)	no binding (tested: 100 nM)										EC50 (N-Terminal CRH): 0.076 nM	PR005660 (antibody, human IgG1, kappa, V domains shown, PTM-removal variant of PR004290) VH: EVQLVESGGVLVQPGGSLRLSCAASGFTFSSYWMTWVRQAPGKGLEWVANIKQEGSEKYYVDSVKGRFTISRDNAKNSLFLQMNSLRAEDTAVYYCARTLIFDYWGQGTLVTVSS VL: DIVMTQSPLSLPVTPGEPASISCRSSQSLLHSTGYQSLEWYLQKPGQSPQLLIYLGSNRASGVPDRFSGSGSGTDFTLKISRVEAEDVGIYYCMQTLQTPITFGQGTRLEIKR
0.0551 nM	8.48e-06	154000	0.451	0.032	0.032	0.078		2.12	no binding (tested: 100 nM)	no binding (tested: 100 nM)										EC50 (N-Terminal CRH): 0.028 nM	PR302309-11 (antibody, human IgG1, kappa, V domains shown, Humanized variant of PR302309) VH: QIQLVQSGSELKKPGASVKVSCKASGYTFTNYGMNWVRQAPGQGLEWMGWINTYTGEPIYTDDFKGRFVFSLDTSVSTAYLQISSLKAEDTAVYYCSRSTMITTGGVFAYWGQGTLVTVSS VL: DIVMTQTPLSSPVTLGQPASISCRSSQTIVHSDGNTYLEWLQQRPGQPPRLLIYKVSNRFSGVPDRFSGSGAGTDFTLKISRVEAEDVGVYYCFQGSHVPWTFGGGTKVEIKR

Source: patent US20260042834A1 (HBM ALPHA THERAPEUTICS, published 2026)
